Assay results from patent US8673579B2, “Peptide probes for diagnostics and therapeutics” (priority 2006, dated 2014).
pyrene = pyrene fluorescent label

Columns and labels:
[1] = Circular dichroism secondary structure calculation; assay type: physicochemical; details: circular dichroism in 30% TFE/Tris, CDPRO deconvolution
Aβ40 = Aβ40 (Homo sapiens, UniProt P05067); assay: Pyrene-labeled peptide probe fluorescence with structural forms of Aβ40; assay type: binding
Text: (§1) A peptide probe specific for Aβ (SEQ ID NO:36) is used to detect specific structural forms of Aβ40 and Aβ42. The peptide probe is labeled at each terminus with pyrene. The peptide probe is contacted with different samples comprising Aβ42 oligomers, Aβ40 oligomers, and Aβ40 monomers.
(§2) Interaction between the peptide probe and sample is detected by excitation at 350 nm and scanning fluorescence from 360 to 600 nm. […] FIG. 11A (fibers and monomer) & 11B (oligomers).

Aβ42 = Aβ42 (Homo sapiens, UniProt P05067); assay: Pyrene-labeled peptide probe fluorescence with structural forms of Aβ42; assay type: binding
Text: as §1, §2

[2] = tested on: Aβ40 and Aβ42 in human cerebrospinal fluid (CSF); assay: Detection of Aβ in human CSF samples (excimer/monomer fluorescence ratio); assay type: binding; details: 40 μL CSF, 2 μM dipyrene-labeled probe, 1 hour; ratio 430-530 nm over 370-385 nm
Text: A peptide probe specific for Aβ (SEQ ID NO:36) is used to detect Aβ40 and Aβ42 in samples of human cerebrospinal fluid (CSF) obtained from Alzheimer's patients and from age-matched healthy patients. […] The data is presented in FIG. 12 as the ratio of the […] region (430-530 nm) over the monomeric region (370-385 nm). […] FIG. 12A presents the data for each patient, while FIG. 12B presents the average data for each patient group.

[3] = tested on: Aβ40 and Aβ42 in human serum; assay: Detection of Aβ in human serum with immobilized biotinylated peptide probe; assay type: binding; details: 200 μL serum; biotinylated probe on streptavidin magnetic beads, then 2 μM dipyrene-labeled probe 3-5 hours
Experimental: Biotinylated peptide probe is immobilized to Dynal magnetic beads coated with streptavidin. These beads are incubated directly with the serum samples for 1 hour, then the magnetic beads and the captured material are pulled down to remove the serum samples.

Aβ plaques [4] = molecular target: T1, Aβ plaques (Homo sapiens, UniProt P05067); assay: In vitro staining of brain sections from hAPP751SL transgenic mice; assay type: binding
Experimental: The following illustrates the ability of peptide probes to target Aβ plaques (e.g., insoluble self-aggregates of Aβ protein associated with Alzheimer's disease) both in vitro and in vivo. A peptide probe specific for Aβ (SEQ ID NO:36) and labeled at each terminus with pyrene is used.
In vitro studies are carried out on brain sections from transgenic mice over-expressing human APP751 with London and Swedish mutations (hAPP751SL). This protein is an Aβ mutant that forms neuritic plaques in the transgenic mice. Tissue from non-transgenic littermate mice served as control tissue.
Two different types of tissue slices are evaluated: cyro-cut (frozen and sliced) and paraffin embedded and sliced. The peptide probe is incubated on the brain slices and binding of the peptide probe to the brain, and to the amyloid deposits/plaques in particular, are qualitatively evaluated. For reference purposes, consecutive slices are immunohistochemically stained with an anti-Aβ antibody, the 6E10 antibody or Thioflavin S. The use of anti-Aβ controls confirms the specificity of the staining on neuritic plaques.
Images are recorded on a Nikon E800 microscope with a mounted PixelFly camera. For tiled image recordings, the microscope is equipped with a StagePro software controlled automatic table. Images of peptide probe staining and antibody and ThioflavinS staining, respectively, are overlaid in Adobe Photo Shop software
In the latter samples, cells from the neuronal layer of the hippocampus are marked, as are brain tissue around plaques in the cortex. Thus, the quality of the stain may be better on paraffin sections.

Aβ plaques [5] = molecular target: T1, Aβ plaques
PrP^Sc [6] = molecular target: T2, PrP^Sc (Mesocricetus auratus, UniProt P04273)
PrP^Sc [7] = molecular target: T2, PrP^Sc; remark: listed apart in the source
PrP^Sc [8] = molecular target: T3, PrP^Sc (Ovis aries, UniProt P23907)
PrP^Sc [9] = molecular target: T3, PrP^Sc; remark: listed apart in the source
[10] = general statement in description
[11] = probe labeled at each terminus with pyrene, excitation 350 nm, scan 360 to 600 nm
[12] = intranasal labeled peptide probe

T1 sequence (P05067 672-713 limits assumed): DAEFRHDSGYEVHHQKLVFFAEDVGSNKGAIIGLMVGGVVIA
Chain of Aβ42 (P05067 672-713): as the sequence (P05067 672-713 limits assumed) above
T3 sequence (P23907 25-233 limits assumed): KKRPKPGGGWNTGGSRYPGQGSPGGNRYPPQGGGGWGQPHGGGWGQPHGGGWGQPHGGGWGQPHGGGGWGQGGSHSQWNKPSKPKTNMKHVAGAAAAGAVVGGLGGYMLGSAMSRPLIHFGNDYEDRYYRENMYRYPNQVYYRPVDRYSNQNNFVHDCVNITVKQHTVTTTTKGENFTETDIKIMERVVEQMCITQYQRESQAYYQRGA
Chain of Aβ40 (P05067 672-711): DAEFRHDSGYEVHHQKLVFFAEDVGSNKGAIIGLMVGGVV
T2 sequence (P04273 23-231 limits assumed): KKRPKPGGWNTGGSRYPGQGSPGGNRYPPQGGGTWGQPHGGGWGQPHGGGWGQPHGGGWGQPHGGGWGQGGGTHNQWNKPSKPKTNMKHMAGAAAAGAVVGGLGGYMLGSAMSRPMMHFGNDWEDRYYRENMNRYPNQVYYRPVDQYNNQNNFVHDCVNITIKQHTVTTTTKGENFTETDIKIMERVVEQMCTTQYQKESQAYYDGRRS

In the case of “Aβ40 fibers: fibers of Aβ40 amyloid beta protein used as sample”, the turn/unordered structure [1] is reported as 35.9%, the α helix structure [1] is reported as 5.6% and the “β strand (sheet) structure” value [1] is reported as 58.4%.

With “Aβ42 fibers: fibers of Aβ42 amyloid beta protein used as sample” the turn/unordered structure [1] was 27.2%, the α helix structure [1] was 12.6% and the “β strand (sheet) structure” value [1] was 60.2%.

In the case of KLVFFAEDVGSNKGAIIGLM [SEQ ID NO:36], the turn/unordered structure [1] is reported as 55.5%, the α helix structure [1] is reported as 19.4% and the “β strand (sheet) structure” value [1] is reported as 25.1%. For the same substance, the “specific reaction with Aβ40 monomers” value (Aβ40; [10]) was “do not specifically react”, the “specific reaction with Aβ40 oligomers” value (Aβ40; [10]) was “specifically react” and the “dose-dependent reaction with Aβ40 fibers” value (Aβ40; [11]) was “reacts”. The “dose-dependent reaction with Aβ40 monomer” value (Aβ40; [11]) was “dose not react”, the “dose-dependent reaction with Aβ40 oligomers” value (Aβ40; [11]) was “reacts” and the “specific reaction with Aβ42 monomers” value (Aβ42; [10]) was “do not specifically react”. For the same substance, the “specific reaction with Aβ42 oligomers” value (Aβ42; [10]) was “specifically react”, the “dose-dependent reaction with Aβ42 fibers” value (Aβ42; [11]) was “reacts” and the “dose-dependent reaction with Aβ42 oligomers” value (Aβ42; [11]) was “reacts”. The “stratification of Alzheimer's patients from age-matched healthy patients” value [2] was “able to stratify”, the “stratification of Alzheimer's patients from age-matched healthy patients” value [3] was “able to stratify” and the “staining of human amyloid peptide bearing blood vessels” value (Aβ plaques [4]; hAPP751SL transgenic brain slices) was “specifically stained”. The “plaque specificity of staining, paraffin versus cryo-cut slices” value (Aβ plaques [4]; overlay with antibody staining of consecutive slices) was “staining on paraffin slices is more specific to plaques than staining on cryo-cut slices”, the “staining of plaques on brain slices” value (Aβ plaques [4]; paraffin or cryo-cut slices, dipyrene-labeled probe) was “plaque-specific staining is apparent” and the “binding in brain of hAPP751SL transgenic mice” value (Aβ plaques [5]; [12]) was “binds to the amyloid and agglomerates outside the blood vessel in the brain”. For the same substance, the “distribution and binding in brain of nontransgenic mice” value (Aβ plaques [5]; [12]) was “reaches the olfactory bulb, but does not bind to a specifiable morphological structure” and the “crossing of the blood-brain barrier (BBB)” value (Aβ plaques [5]; mouse, in vivo) was “crosses the blood-brain barrier”.

For “VVAGAAAAGAVHKMNTKPKMKHVAGAAAAGAVV [SEQ ID NO:43]”, the “reactivity with smaller versus larger PrP^Sc aggregates” value (PrP^Sc [6]) was “reacts with smaller PrP^Sc aggregates over larger PrP^Sc aggregates”, the “reactivity after sonication of samples” value (PrP^Sc [7]) was “increased reactivity” and the “effect of sample sonication on signal-to-noise” value (PrP^Sc [8]) was “improved the signal-to-noise ration”. For the same substance, the “reactivity with PrP^Sc in sera from infected sheep” value (PrP^Sc [8]) was “reacted”, the “reactivity with sera from normal sheep” value (PrP^Sc [8]) was “did not react” and the sensitivity (PrP^Sc [8]) was 100%. The specificity (PrP^Sc [8]) was 100% and the “relative reactivity with sheep blood components” value (PrP^Sc [9]) was “buffy coat>serum>plasma”.

With “labeled peptide probe: peptide probe specific for Aβ (SEQ ID NO:36) labeled at each terminus with pyrene (pyrene-KLVFFAEDVGSNKGAIIGLM-pyrene)” the turn/unordered structure [1] was 54.1%, the α helix structure [1] was 18.3% and the “β strand (sheet) structure” value [1] was 27.6%.

For “oligomers of Aβ42: sample of oligomers of Aβ42 including dimers, trimers, tetramers, hexamers and 12-mers”, the turn/unordered structure [1] was 45.4% and the “β strand (sheet) structure” value [1] was 52.7%.
